How the values were obtained:
[1] = target: T1, CTCFwt, full length, GST tag removed (human), P49711; assay: SEC; conditions: remark: other sources report otherwise
T1 chain: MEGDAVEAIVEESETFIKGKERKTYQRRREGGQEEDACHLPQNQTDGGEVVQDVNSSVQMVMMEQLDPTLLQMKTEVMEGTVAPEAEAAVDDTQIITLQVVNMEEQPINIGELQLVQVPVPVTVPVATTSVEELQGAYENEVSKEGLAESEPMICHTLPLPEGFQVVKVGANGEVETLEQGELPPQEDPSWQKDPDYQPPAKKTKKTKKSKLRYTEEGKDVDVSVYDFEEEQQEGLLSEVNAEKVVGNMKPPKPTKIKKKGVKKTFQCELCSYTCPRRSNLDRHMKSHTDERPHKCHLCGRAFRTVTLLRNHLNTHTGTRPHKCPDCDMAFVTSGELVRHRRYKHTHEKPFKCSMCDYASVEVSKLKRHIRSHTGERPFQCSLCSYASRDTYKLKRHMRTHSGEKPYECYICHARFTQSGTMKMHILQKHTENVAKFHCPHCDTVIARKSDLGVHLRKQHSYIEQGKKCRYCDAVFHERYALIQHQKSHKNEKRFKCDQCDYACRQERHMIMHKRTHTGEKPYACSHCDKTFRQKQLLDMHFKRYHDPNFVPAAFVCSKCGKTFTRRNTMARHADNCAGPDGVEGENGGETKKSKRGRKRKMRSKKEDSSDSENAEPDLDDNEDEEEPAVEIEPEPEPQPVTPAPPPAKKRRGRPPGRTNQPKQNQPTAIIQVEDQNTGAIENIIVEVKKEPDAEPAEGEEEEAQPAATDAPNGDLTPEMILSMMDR

SEC = target: the molecule itself; assay: SEC

B1: CTCFwt, full length, GST tag removed, P49711 1-727 (natural protein)
chain: T1 chain
stoichiometry N [1]: 3

B2: RBR fragment of CTCF (purified, used in gel filtration) (domain or fragment, human, UniProt P49711 520-727, looked up)
chain: EKPYACSHCDKTFRQKQLLDMHFKRYHDPNFVPAAFVCSKCGKTFTRRNTMARHADNCAGPDGVEGENGGETKKSKRGRKRKMRSKKEDSSDSENAEPDLDDNEDEEEPAVEIEPEPEPQPVTPAPPPAKKRRGRPPGRTNQPKQNQPTAIIQVEDQNTGAIENIIVEVKKEPDAEPAEGEEEEAQPAATDAPNGDLTPEMILSMMDR
binding result (SEC): binds
